Measured values published in patent US20110300138A1 (published 2011).
Where two headings read alike, the source gives them in different places.

What was measured:
Experiment in all cases: cell-based or functional assay
[1] = target: human TSH receptor (full length, wild type) expressed in CHO cells (human) (UniProt P16473)
[2] = target: human TSH receptor (full length, wild type) expressed in CHO cells (human) (UniProt P16473); remark: listed apart in the source
[3] = target: human TSHR (thyroid stimulating hormone receptor) expressed in transfected CHO cells (human) (UniProt P16473)
[4] = target: human TSH receptor (full length, wild type) expressed in CHO cells (human) (UniProt P16473); remark: listed apart in the source
[5] = target: human TSHR (wild type, full length) expressed in CHO cells (human) (UniProt P16473)

9D33 IgG (antibody)
% Inhibition; T10 serum + 100 µg/mL 9D33 IgG [1]: 95.4% | % Inhibition; T11 serum + 100 µg/mL 9D33 IgG [1]: 87.1% | % Inhibition; T12 serum + 100 µg/mL 9D33 IgG [1]: 91.7% | Cyclic AMP concentration; 100 µg/mL 9D33 IgG alone [1]: 1.9 pmol/mL | Cyclic AMP concentration; HBD + 100 µg/mL 9D33 IgG [1]: 3.2 pmol/mL | Cyclic AMP concentration; T10 serum + 100 µg/mL 9D33 IgG [1]: 2.6 pmol/mL | Cyclic AMP concentration; T11 serum + 100 µg/mL 9D33 IgG [1]: 5.3 pmol/mL | Cyclic AMP concentration; T12 serum + 100 µg/mL 9D33 IgG [1]: 3.6 pmol/mL | % Inhibition; T4 serum + 100 µg/mL 9D33 [2]: 94.8% | % Inhibition; T5 serum + 100 µg/mL 9D33 [2]: 95.6% | % Inhibition; T6 serum + 100 µg/mL 9D33 [2]: 94% | Cyclic AMP concentration; 100 µg/mL 9D33 alone [2]: 2 pmol/mL | Cyclic AMP concentration; HBD + 100 µg/mL 9D33 [2]: 3.9 pmol/mL | Cyclic AMP concentration; T4 serum + 100 µg/mL 9D33 [2]: 4.1 pmol/mL | Cyclic AMP concentration; T5 serum + 100 µg/mL 9D33 [2]: 2.9 pmol/mL | Cyclic AMP concentration; T6 serum + 100 µg/mL 9D33 [2]: 5 pmol/mL | % Inhibition; 3 ng/mL M22 IgG + 0.001 µg/mL 9D33 IgG [3]: 9% | % Inhibition; 3 ng/mL M22 IgG + 0.01 µg/mL 9D33 IgG [3]: 2% | % Inhibition; 3 ng/mL M22 IgG + 0.1 µg/mL 9D33 IgG [3]: 66% | % Inhibition; 3 ng/mL M22 IgG + 1 µg/mL 9D33 IgG [3]: 93% | % Inhibition; 3 ng/mL M22 IgG + 10 µg/mL 9D33 IgG [3]: 94% | % Inhibition; 3 ng/mL M22 IgG + 100 µg/mL 9D33 IgG [3]: 95% | Cyclic AMP concentration; 3 ng/mL M22 IgG + 0.001 µg/mL 9D33 IgG [3]: 19.4 pmol/mL | Cyclic AMP concentration; 3 ng/mL M22 IgG + 0.01 µg/mL 9D33 IgG [3]: 21 pmol/mL | Cyclic AMP concentration; 3 ng/mL M22 IgG + 0.1 µg/mL 9D33 IgG [3]: 7.19 pmol/mL | Cyclic AMP concentration; 3 ng/mL M22 IgG + 1 µg/mL 9D33 IgG [3]: 1.48 pmol/mL | Cyclic AMP concentration; 3 ng/mL M22 IgG + 10 µg/mL 9D33 IgG [3]: 1.2 pmol/mL | Cyclic AMP concentration; 3 ng/mL M22 IgG + 100 µg/mL 9D33 IgG [3]: 1.01 pmol/mL | Cyclic AMP concentration; 100 µg/mL 9D33 IgG [3]: 1.31 pmol/mL | % Inhibition; T7 serum + 100 µg/mL 9D33 IgG [4]: 93% | % Inhibition; T8 serum + 100 µg/mL 9D33 IgG [4]: 95% | % Inhibition; T9 serum + 100 µg/mL 9D33 IgG [4]: 87.2% | Cyclic AMP concentration; 100 µg/mL 9D33 IgG alone [4]: 2.4 pmol/mL | Cyclic AMP concentration; HBD + 100 µg/mL 9D33 IgG [4]: 5.4 pmol/mL | Cyclic AMP concentration; T7 serum + 100 µg/mL 9D33 IgG [4]: 6.3 pmol/mL | Cyclic AMP concentration; T8 serum + 100 µg/mL 9D33 IgG [4]: 4.3 pmol/mL | Cyclic AMP concentration; T9 serum + 100 µg/mL 9D33 IgG [4]: 7.2 pmol/mL | % Inhibition of T13 serum stimulation; 100 µg/mL 9D33 IgG [5]: 92.2% | % Inhibition of T14 serum stimulation; 100 µg/mL 9D33 IgG [5]: 89.7% | % Inhibition of T15 serum stimulation; 100 µg/mL 9D33 IgG [5]: 92.4% | Cyclic AMP concentration; 100 µg/mL 9D33 IgG alone [5]: 2.3 pmol/mL | Cyclic AMP concentration; HBD + 100 µg/mL 9D33 IgG [5]: 3.3 pmol/mL | Cyclic AMP concentration; T13 serum + 100 µg/mL 9D33 IgG [5]: 3.8 pmol/mL | Cyclic AMP concentration; T14 serum + 100 µg/mL 9D33 IgG [5]: 2.8 pmol/mL | Cyclic AMP concentration; T15 serum + 100 µg/mL 9D33 IgG [5]: 3.9 pmol/mL
